Results on one substance are retold here after PMC2120307.

Test [1] concerns the target recombinant purified neutrophil adhesion inhibitor NIF (rNIF) of the hookworm Ancylostoma caninum (Ancylostoma caninum). In words: flow cytometry on cells.
Test [2] has the same target. In words: ELISA.

Consider “recombinant CD11b A-domain (r11bA), wild type (domain or fragment)”, for which the IC50 in test [1] and in test [2] was 1 nM each time.
